# Measurements from patent US20220143148A1, “COMPOSITIONS AND METHODS FOR MODULATING CGRP SIGNALING TO REGULATE INTESTINAL INNATE LYMPHOID CELLS” (The Broad Institute, Inc., priority 2019, published 2022).
# Tested on: small intestinal immune cells
# Assay: Droplet-based scRNA-seq of small intestinal immune cells (LP and PP), OVA vs PBS, clustering and differential expression
# Assay type: in vivo, mouse
# Details: PP; cluster ID 8
# Excerpt: To comprehensively characterize small intestinal immune cells, Applicants generated scRNA-Seq profiles for 58,067 immune cells collected from lamina propria (LP) and Peyer's patch (PP) regions at steady state and after induction of a type 2 inflammatory reaction to ovalbumin (OVA) (Brandt et al., 2003) (FIGS. 1A and 8A). To ensure sufficient representation of rare cells, Applicants combined a normalization strategy—removing by flow sorting either a portion of IgD+ naïve B cells, which are the most abundant cell type in PPs, or all CD19+ and CD3+ T cells (FIG. 8B, Methods)—with profiling of a sufficiently large number of cells number (P>0.99 to recover at least 15 cells from each cluster, Methods) by massively parallel scRNA-seq (Haber et al., 2017) (Methods). Applicants obtained 36,797 and 21,270 high quality cells passing initial filtering (Methods) from PP and LP regions, respectively.
# Overall, Applicants annotated 27 cell subsets across the two compartments, spanning T cells, B cells, ILCs, dendritic cells (DCs), myeloid cells and stromal cells, in frequencies ranging from 0.07% to 14%. Briefly, Applicants first partitioned the cells from the PP regions by unsupervised clustering (Methods) into 46 clusters, retained the 97% of cells that were robustly assigned cell identities in each cluster (Methods), assigned the cells from the LP regions to the 46 clusters using a classifier (Methods), and visualized the data with scvis (Ding et al., 2018), a deep generative model-based method (FIGS. 1B and 8C, Methods). Next, Applicants identified genes that were differentially expressed between the cells in each cluster and the remaining cells (Table 1, Methods), as well as between pairs of clusters (Table 2), to elucidate identities of similar cell types/states. Applicants excluded from downstream analysis clusters mostly consisting of contaminants from epithelium, likely doublets, or cells with a small number of Unique Molecular Identifiers (UMIs) (FIGS. 1C and 8D), or lacking distinct markers (Methods). Altogether, Applicants retained 27 clusters spanning 85% of the cells and each associated with distinct marker genes (FIG. 8E, Methods).
# To induce allergic reaction to OVA, 6 to 7 weeks old mice were sensitized twice, two weeks apart, with 50 μg of OVA plus 1 mg of aluminum potassium sulfate adjuvant via intraperitoneal injection. Two weeks later, mice were orally administered with 50 mg of OVA on every other day for a total of five times. 1 μg of α-CGRP peptide was administered simultaneously when indicated. Mice were deprived of food for 3-4 hours in cages with wood chip bedding for limiting antigen degradation in the stomach before each intragastric challenge.
# Isolation of cells from Peyer's patches (PPs). Peyer's patches (PPs) were carefully dissected from the small intestine under a stereo microscope using a fine scissor, pierced once with a fine forcep. Tissues were digested in freshly made digestion buffer (RPMI-1640 containing 100 μg/ml Liberase™ and 50 μg/ml DNase I at 37° C. on a roto-mixer. After 15 min, tissues were very gently mixed using a 1 ml pipette. The supernatant was collected and added to ice-cold MACS buffer (pH 7.4; PBS plus 2% FCS and 2 mM EDTA). Pre-warmed (37° C.) fresh digestion buffer was added to the remaining tissues. After rotation at 37° C. for 15 min, the mixture was vigorously mixed using a 1 ml pipette for 1 min. Supernatants from the two steps were combined and passed through 70 μm filters and stained for FACS (below).
# Isolation of cells from the lamina propria (LP). The small intestines were opened longitudinally and washed in ice-cold PBS. For scRNA-seq, roughly 0.5 cm of fragments from each of the distal, middle and proximal regions without visible PPs were collected. Epithelial cells were dissociated by tissue rotation in pre-warmed (37° C.) PBS containing 10 mM EDTA at 37° C. for 15 min, followed by additional incubation on ice for 15 min. Tissues were then shaken vigorously. […]
molecule,measurement,value
"OVA (protein, UniProt P01012 2-386, looked up) Ovalbumin: GSIGAASMEFCFDVFKELKVHHANENIFYCPIAIMSALAMVYLGAKDSTRTQINKVVRFDKLPGFGDSIEAQCGTSVNVHSSLRDILNQITKPNDVYSFSLASRLYAEERYPILPEYLQCVKELYRGGLEPINFQTAADQARELINSWVESQTNGIIRNVLQPSSVDSQTAMVLVNAIVFKGLWEKAFKDEDTQAMPFRVTEQESKPVQMMYQIGLFRVASMASEKMKILELPFASGTMSMLVLLPDEVSGLEQLESIINFEKLTEWTSSNVMEERKIKVYLPRMKMEEKYNLTSVLMAMGITDVFSSSANLSGISSAESLKISQAVHAAHAEINEAGREVVGSAEAGVDAASVSEEFRADHPFLFCIKHIATNAVLFFGRCVSP",Fosl2 percentage of expressing cells in OVA-treated group,0.378
same,Ftl1 percentage of expressing cells in OVA-treated group,0.963
same,Gadd45b percentage of expressing cells in OVA-treated group,0.17
same,Gimap1 percentage of expressing cells in OVA-treated group,0.776
same,Gimap6 percentage of expressing cells in OVA-treated group,0.815
same,Gimap9 percentage of expressing cells in OVA-treated group,0.511
same,Gnai2 percentage of expressing cells in OVA-treated group,0.661
same,Gramd1a percentage of expressing cells in OVA-treated group,0.336
same,Gramd3 percentage of expressing cells in OVA-treated group,0.227
same,Gzma percentage of expressing cells in OVA-treated group,0.764
same,H2-K1 percentage of expressing cells in OVA-treated group,0.978
same,H3f3b percentage of expressing cells in OVA-treated group,0.993
same,Hcst percentage of expressing cells in OVA-treated group,0.898
same,Hist1h1c percentage of expressing cells in OVA-treated group,0.348
same,Hist1h1e percentage of expressing cells in OVA-treated group,0.176
same,Icam1 percentage of expressing cells in OVA-treated group,0.175
same,Id2 percentage of expressing cells in OVA-treated group,0.684
same,Ier2 percentage of expressing cells in OVA-treated group,0.781
same,Ier5l percentage of expressing cells in OVA-treated group,0.057
same,Ifi203 percentage of expressing cells in OVA-treated group,0.547
same,Ifrd1 percentage of expressing cells in OVA-treated group,0.276
same,Igha percentage of expressing cells in OVA-treated group,0.488
same,Igkc percentage of expressing cells in OVA-treated group,0.677
same,Ikzf2 percentage of expressing cells in OVA-treated group,0.216
same,Il2rg percentage of expressing cells in OVA-treated group,0.681
same,Il16 percentage of expressing cells in OVA-treated group,0.336
same,Jun percentage of expressing cells in OVA-treated group,0.453
same,Jund percentage of expressing cells in OVA-treated group,0.846
same,Kdm2b percentage of expressing cells in OVA-treated group,0.158
same,Kdm6b percentage of expressing cells in OVA-treated group,0.274
same,Klf4 percentage of expressing cells in OVA-treated group,0.122
same,Klf6 percentage of expressing cells in OVA-treated group,0.589
same,Klrb1c percentage of expressing cells in OVA-treated group,0.735
same,Klrb1f percentage of expressing cells in OVA-treated group,0.56
same,Klrc1 percentage of expressing cells in OVA-treated group,0.608
same,Klrc2 percentage of expressing cells in OVA-treated group,0.505
same,Klrd1 percentage of expressing cells in OVA-treated group,0.939
same,Klre1 percentage of expressing cells in OVA-treated group,0.744
same,Klrk1 percentage of expressing cells in OVA-treated group,0.873
same,Lax1 percentage of expressing cells in OVA-treated group,0.286
same,Litaf percentage of expressing cells in OVA-treated group,0.339
same,Lmna percentage of expressing cells in OVA-treated group,0.089
same,Maff percentage of expressing cells in OVA-treated group,0.251
same,Mcpt1 percentage of expressing cells in OVA-treated group,0.209
same,Mir142hg percentage of expressing cells in OVA-treated group,0.161
same,Ms4a4b percentage of expressing cells in OVA-treated group,0.953
same,Ms4a6b percentage of expressing cells in OVA-treated group,0.419
same,Myl6 percentage of expressing cells in OVA-treated group,0.987
same,Nabp1 percentage of expressing cells in OVA-treated group,0.702
same,Ncr1 percentage of expressing cells in OVA-treated group,0.964
same,Ndel1 percentage of expressing cells in OVA-treated group,0.216
same,Neat1 percentage of expressing cells in OVA-treated group,0.503
same,Neurl3 percentage of expressing cells in OVA-treated group,0.388
same,Nfil3 percentage of expressing cells in OVA-treated group,0.365
same,Nfkb1 percentage of expressing cells in OVA-treated group,0.374
same,Nfkbia percentage of expressing cells in OVA-treated group,0.614
same,Nfkbid percentage of expressing cells in OVA-treated group,0.146
same,Nfkbie percentage of expressing cells in OVA-treated group,0.111
same,Nfkbiz percentage of expressing cells in OVA-treated group,0.358
same,Ninj1 percentage of expressing cells in OVA-treated group,0.125
same,Nkg7 percentage of expressing cells in OVA-treated group,0.985
same,Nr4a1 percentage of expressing cells in OVA-treated group,0.561
same,Nr4a2 percentage of expressing cells in OVA-treated group,0.348
same,Nr4a3 percentage of expressing cells in OVA-treated group,0.157
same,Odc1 percentage of expressing cells in OVA-treated group,0.202
same,P2ry10 percentage of expressing cells in OVA-treated group,0.374
same,Phlda1 percentage of expressing cells in OVA-treated group,0.134
same,Pim1 percentage of expressing cells in OVA-treated group,0.677
same,Pnrc1 percentage of expressing cells in OVA-treated group,0.769
same,Ppp1r15a percentage of expressing cells in OVA-treated group,0.406
same,Ppp1r16b percentage of expressing cells in OVA-treated group,0.206
same,Ppp3cc percentage of expressing cells in OVA-treated group,0.268
same,Prr7 percentage of expressing cells in OVA-treated group,0.093
same,Ptp4a2 percentage of expressing cells in OVA-treated group,0.606
same,Ptprcap percentage of expressing cells in OVA-treated group,0.929
